Among the targets are RPA•2(ERK) (Saccharomyces cerevisiae, UniProt P22336;P26754;P26755 1-621;1-273;1-122, I96L;E97A;R99A;K100A); RPA•2(DT) (Saccharomyces cerevisiae, UniProt P22336;P26754;P26755 1-621;1-273;1-122, D80A;T82A); RPA•2(MM2) (Saccharomyces cerevisiae, UniProt P22336;P26754;P26755 1-621;1-273;1-122, D80A;T82A;E103A;D104A;D158A;E162A); RPA•2(MM1) (Saccharomyces cerevisiae, UniProt P22336;P26754;P26755 1-621;1-273;1-122, D80A;T82A;I96L;E97A;R99A;K100A;K146A;K147A); RPA•2(WF) (Saccharomyces cerevisiae, UniProt P22336;P26754;P26755 1-621;1-273;1-122, W101A;F143A).

Holding throughout (experiment): fluorescence polarization
For orientation: In fluorescence polarisation assays a small probe gives low polarisation when free and higher when bound to something large.

Drawing on paper PMC2673435, this text covers binding result and Ka for one molecule.

Sequence of RPA•2(MM1) (P22336 whole entry, chain 1 of 3): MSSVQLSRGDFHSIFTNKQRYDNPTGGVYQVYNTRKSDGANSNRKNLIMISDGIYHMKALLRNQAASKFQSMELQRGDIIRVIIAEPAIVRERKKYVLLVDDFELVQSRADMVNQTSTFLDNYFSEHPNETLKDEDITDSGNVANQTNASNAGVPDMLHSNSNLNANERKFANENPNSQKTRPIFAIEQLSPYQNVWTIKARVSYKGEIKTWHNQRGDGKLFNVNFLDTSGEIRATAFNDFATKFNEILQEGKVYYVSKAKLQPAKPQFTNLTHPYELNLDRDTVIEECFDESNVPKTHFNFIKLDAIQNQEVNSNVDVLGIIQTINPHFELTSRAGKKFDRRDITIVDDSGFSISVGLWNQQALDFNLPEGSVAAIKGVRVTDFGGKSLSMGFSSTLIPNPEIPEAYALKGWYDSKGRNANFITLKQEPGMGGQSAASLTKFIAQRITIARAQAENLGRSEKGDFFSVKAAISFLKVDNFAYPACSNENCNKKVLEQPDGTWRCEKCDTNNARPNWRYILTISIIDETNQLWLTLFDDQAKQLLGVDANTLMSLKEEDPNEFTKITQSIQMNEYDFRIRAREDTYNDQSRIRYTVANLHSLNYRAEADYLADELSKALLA
Sequence of RPA•2(MM1) (P26754 whole entry D80A/T82A/I96L/E97A/R99A/K100A/K146A/K147A, chain 2 of 3): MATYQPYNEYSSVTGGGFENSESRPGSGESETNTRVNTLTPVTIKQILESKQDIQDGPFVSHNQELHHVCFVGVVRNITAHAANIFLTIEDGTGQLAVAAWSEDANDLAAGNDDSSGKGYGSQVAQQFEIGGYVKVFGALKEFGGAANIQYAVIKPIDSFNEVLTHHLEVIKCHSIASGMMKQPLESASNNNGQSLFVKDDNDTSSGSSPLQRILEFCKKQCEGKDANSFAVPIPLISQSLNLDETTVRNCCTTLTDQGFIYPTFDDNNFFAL
Sequence of RPA•2(MM1) (P26755 whole entry, chain 3 of 3): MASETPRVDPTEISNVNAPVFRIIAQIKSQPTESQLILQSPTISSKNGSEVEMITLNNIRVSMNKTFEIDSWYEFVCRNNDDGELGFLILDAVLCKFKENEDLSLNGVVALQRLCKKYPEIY
Sequence of RPA•2(MM2) (P22336 whole entry, chain 1 of 3): as the sequence (P22336 whole entry, chain 1 of 3) above
Sequence of RPA•2(MM2) (P26754 whole entry D80A/T82A/E103A/D104A/D158A/E162A, chain 2 of 3): as the sequence (P26754 whole entry D80A/T82A/I96L/E97A/R99A/K100A/K146A/K147A, chain 2 of 3) above, with L96I, A97E, A99R, A100K, E103A, D104A, A146K, A147K, D158A, E162A counted along it
Sequence of RPA•2(MM2) (P26755 whole entry, chain 3 of 3): as the sequence (P26755 whole entry, chain 3 of 3) above
Sequence of RPA•2(ERK) (P22336 whole entry, chain 1 of 3): as the sequence (P22336 whole entry, chain 1 of 3) above
Sequence of RPA•2(ERK) (P26754 whole entry I96L/E97A/R99A/K100A, chain 2 of 3): as the sequence (P26754 whole entry D80A/T82A/I96L/E97A/R99A/K100A/K146A/K147A, chain 2 of 3) above, with A80D, A82T, A146K, A147K counted along it
Sequence of RPA•2(ERK) (P26755 whole entry, chain 3 of 3): as the sequence (P26755 whole entry, chain 3 of 3) above
Sequence of RPA•2(DT) (P22336 whole entry, chain 1 of 3): as the sequence (P22336 whole entry, chain 1 of 3) above
Sequence of RPA•2(DT) (P26754 whole entry D80A/T82A, chain 2 of 3): as the sequence (P26754 whole entry D80A/T82A/I96L/E97A/R99A/K100A/K146A/K147A, chain 2 of 3) above, with L96I, A97E, A99R, A100K, A146K, A147K counted along it
Sequence of RPA•2(DT) (P26755 whole entry, chain 3 of 3): as the sequence (P26755 whole entry, chain 3 of 3) above
Sequence of RPA•2(WF) (P22336 whole entry, chain 1 of 3): as the sequence (P22336 whole entry, chain 1 of 3) above
Sequence of RPA•2(WF) (P26754 whole entry W101A/F143A, chain 2 of 3): as the sequence (P26754 whole entry D80A/T82A/I96L/E97A/R99A/K100A/K146A/K147A, chain 2 of 3) above, with A80D, A82T, L96I, A97E, A99R, A100K, W101A, F143A, A146K, A147K counted along it
Sequence of RPA•2(WF) (P26755 whole entry, chain 3 of 3): as the sequence (P26755 whole entry, chain 3 of 3) above

TTTTTTTTTTTTTTTTTTTTTTTTTTTTTT (ssDNA) [dT30]: the binding result in the series with RPA•2(ERK), with RPA•2(DT), with RPA•2(MM2) and in the series with RPA•2(MM1) was “binds” each time. For the same molecule, in the series with RPA•2(WF), the Ka turned out to be 3.85e+07 M⁻¹.
